# In US20100047253A1:
# B1: murine IL-13 receptor α2/FC (Fc fusion, mouse, UniProt O88786 22-334, looked up, not shown: a dimerising Fc or GST)
# chain: LEIKVNPPQDFEILDPGLLGYLYLQWKPPVVIEKFKGCTLEYELKYRNVDSDSWKTIITRNLIYKDGFDLNKGIEGKIRTHLSEHCTNGSEVQSPWIEASYGISDEGSLETKIQDMKCIYYNWQYLVCSWKPGKTVYSDTNYTMFFWYEGLDHALQCADYLQHDEKNVGCKLSNLDSSDYKDFFICVNGSSKLEPIRSSYTVFQLQNIVKPLPPEFLHISVENSIDIRMKWSTPGGPIPPRCYTYEIVIREDDISWESATDKNDMKLKRRANESEDLCFFVRCKVNIYCADDGIWSEWSEEECWEGYTGPDSK
# B2: mAb 623 (antibody, V domains shown)
# VH: EVQLVESGGGLVKPGGSLRLSCAASGFTFSNAWMSWVRQAPGKGLEWVGRIRSEIDGGTTNYAAPVKGRFTISRDDSKNTLYLQMNSLKTEDTAVYYCATDQVGAYYGDYYGMDVWGQGTTVTVSS
# VL: SYELTQPPSVSVSPGQTARITCSGDALPEKYAYWYQQKSGQAPVLVIYEDSKRPSGIPERFSGSSSGTMATLTISGAQVEDEADYYCHSTDSSGNHGVFGGGTKLTVLG
# B3: human IL-13 receptor α2/Fc (Fc fusion, UniProt Q14627 27-343, looked up, not shown: a dimerising Fc or GST)
# chain: DTEIKVNPPQDFEIVDPGYLGYLYLQWQPPLSLDHFKECTVEYELKYRNIGSETWKTIITKNLHYKDGFDLNKGIEAKIHTLLPWQCTNGSEVQSSWAETTYWISPQGIPETKVQDMDCVYYNWQYLLCSWKPGIGVLLDTNYNLFYWYEGLDHALQCVDYIKADGQNIGCRFPYLEASDYKDFYICVNGSSENKPIRSSYFTFQLQNIVKPLPPVYLTFTRESSCEIKLKWSIPLGPIPARCFDYEIEIREDDTTLVTATVENETYTLKTTNETRQLCFVVRSKVNIYCSDDGIWSEWSDKQCWEGEDLSKKTLLR
# B4: mAb 731 (antibody, V domains shown)
# VH: EVQLLESGGGLVQPGGSLRLSCAASGFTFSSYAMSWVRQAPGKGLEWVSAFSGSGGSTYYADSVKGRFTISRDNSKNTLYLQMNSLRAEDTAVYYCVQDGLGPYFYNYGMDVWGQGTTVTVSS
# VL: SYELTQPPSVSVSPGQTASITCSGDKLGDKYACWFQQKPGQSPVLVIYHDSKRPSGIPERFSGSNSGDTATLTISGTQAMDEADYYCQAWDSSTYVFGTGTKVTVLG
# Columns and labels:
# [1] = biological target: human IL-13 (source not stated for the assay) (human) (UniProt P35225); experiment: cell-based or functional assay
# [2] = biological target: IL-13 variant IL-13Q110R (human) (UniProt P35225); experiment: cell-based or functional assay
# [3] = biological target: IL-13 variant IL-13Q110R (human) (UniProt P35225); experiment: SPR (Biacore 2000), mAb captured on goat anti-human surface, IL-13 variant (Peprotech) 23.6-0.185 nM, 1:1 model
# Chain of IL-13 variant IL-13Q110R (human) (P35225 33-146, stated change not applied): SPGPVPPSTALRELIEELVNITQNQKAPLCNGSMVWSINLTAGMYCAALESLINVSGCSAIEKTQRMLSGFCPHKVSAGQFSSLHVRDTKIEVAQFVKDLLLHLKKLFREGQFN
# Chain of human IL-13 (source not stated for the assay) (human) (P35225 35-146 limits assumed): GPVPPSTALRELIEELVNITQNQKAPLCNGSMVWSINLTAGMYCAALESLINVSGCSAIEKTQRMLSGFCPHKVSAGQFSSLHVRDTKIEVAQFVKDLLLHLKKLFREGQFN
binder,measurement,setting,value
B1,"IC50, IL-13 induced eotaxin release, Average",[1],0.032 nM
same,"IC50, IL-13 induced eotaxin release, n = 1",[1],0.029 nM
same,"IC50, IL-13 induced eotaxin release, n = 2",[1],0.039 nM
same,"IC50, IL-13 induced eotaxin release, n = 3",[1],0.029 nM
B2,"IC50, eotaxin production by HDFa cells, 300 pM IL-13Q110R",[2],106 pM
same,"IC50, eotaxin production by HDFa cells, 600 pM IL-13Q130R",[2],277 pM
same,Kd,[3],0.0388 nM
same,koff,[3],0.000218 s⁻¹
same,kon,[3],5.62e+06 M⁻¹ s⁻¹
B3,"EC50, HDLM-2 proliferation assay (3H-thymidine)",[1],0.6 nM
same,"EC50, L-1236 proliferation assay (3H-thymidine)",[1],0.059 nM
same,"IC50, IL-13-induced CD23 expression on whole blood B cells (FACS)",[1],4 nM
same,"IC50, IL-13 induced eotaxin release, Average",[1],0.131 nM
same,"IC50, IL-13 induced eotaxin release, n = 1",[1],0.128 nM
same,"IC50, IL-13 induced eotaxin release, n = 2",[1],0.147 nM
same,"IC50, IL-13 induced eotaxin release, n = 3",[1],0.119 nM
B4,"IC50, eotaxin production by HDFa cells, 300 pM IL-13Q110R",[2],54 pM
same,"IC50, eotaxin production by HDFa cells, 600 pM IL-13Q130R",[2],140 pM
same,Kd,[3],0.0098 nM
same,koff,[3],5.02e-05 s⁻¹
same,kon,[3],5.11e+06 M⁻¹ s⁻¹
